Source: US20030232009A1 (Amgen, published 2003)

T1: Human 20.2 peptide (human)
T1 construct: synthetic peptide from the RB exon
T1 peptide: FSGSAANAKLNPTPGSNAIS

T2: chimeric CD45RB (full length human CD45RB with the macaque RB exon) transiently expressed in CHO cells (human; macaque, UniProt P08575-9 26-33; P08575-9 81-1192)
T2 construct: whole chimeric protein on CHO cells; also called Macaque CD45RB CHO
T2 sequence: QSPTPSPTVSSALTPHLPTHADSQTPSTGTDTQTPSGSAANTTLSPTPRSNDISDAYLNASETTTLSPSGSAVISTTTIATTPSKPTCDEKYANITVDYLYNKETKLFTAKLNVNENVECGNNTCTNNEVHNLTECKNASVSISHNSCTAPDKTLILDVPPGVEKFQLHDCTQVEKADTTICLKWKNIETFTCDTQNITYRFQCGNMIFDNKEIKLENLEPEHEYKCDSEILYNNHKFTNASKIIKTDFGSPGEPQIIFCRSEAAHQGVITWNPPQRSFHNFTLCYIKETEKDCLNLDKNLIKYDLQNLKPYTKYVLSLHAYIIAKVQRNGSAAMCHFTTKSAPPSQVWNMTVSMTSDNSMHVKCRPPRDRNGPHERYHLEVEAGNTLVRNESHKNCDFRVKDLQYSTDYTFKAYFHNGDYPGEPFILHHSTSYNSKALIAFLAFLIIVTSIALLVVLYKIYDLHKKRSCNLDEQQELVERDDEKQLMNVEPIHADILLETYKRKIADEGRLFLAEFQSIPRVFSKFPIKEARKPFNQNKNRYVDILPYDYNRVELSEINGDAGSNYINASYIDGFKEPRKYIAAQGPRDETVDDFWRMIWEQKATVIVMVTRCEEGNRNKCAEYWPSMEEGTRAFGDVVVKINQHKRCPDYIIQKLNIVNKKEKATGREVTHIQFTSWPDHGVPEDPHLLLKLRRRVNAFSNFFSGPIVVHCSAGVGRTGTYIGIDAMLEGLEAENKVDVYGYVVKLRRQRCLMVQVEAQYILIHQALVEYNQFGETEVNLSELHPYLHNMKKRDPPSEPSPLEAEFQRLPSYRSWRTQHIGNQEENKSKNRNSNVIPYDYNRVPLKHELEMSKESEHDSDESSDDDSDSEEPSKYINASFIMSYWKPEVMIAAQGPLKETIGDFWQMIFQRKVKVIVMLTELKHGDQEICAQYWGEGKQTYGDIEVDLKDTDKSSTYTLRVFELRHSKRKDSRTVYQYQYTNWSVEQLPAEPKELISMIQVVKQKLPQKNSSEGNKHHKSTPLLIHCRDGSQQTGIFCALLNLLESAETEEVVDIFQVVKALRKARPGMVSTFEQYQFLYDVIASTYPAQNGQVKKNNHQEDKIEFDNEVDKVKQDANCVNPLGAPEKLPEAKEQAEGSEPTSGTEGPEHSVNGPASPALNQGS

T3: Macaque 46 mer peptide (RB exon of macaque CD45RB) (macaque)
T3 construct: synthetic peptide
T3 peptide: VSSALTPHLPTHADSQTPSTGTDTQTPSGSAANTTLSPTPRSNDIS

T4: Human 18 mer peptide (human)
T4 construct: synthetic peptide from the RB exon
T4 peptide: VSSVQTPHLPTHADSQTPC

T5: Human 20.1 peptide (human)
T5 construct: synthetic peptide from the RB exon
T5 peptide: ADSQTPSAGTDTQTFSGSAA


Key:
[1] = biological target: T1, Human 20.2 peptide; experiment: recombinant antibody on peptide
[2] = biological target: T2, chimeric CD45RB (full length human …); experiment: transiently transfected CHO cells
[3] = biological target: T3, Macaque 46 mer peptide (RB exon of …); experiment: recombinant antibody on peptide
[4] = biological target: T4, Human 18 mer peptide; experiment: recombinant antibody on peptide
[5] = biological target: T5, Human 20.1 peptide; experiment: recombinant antibody on peptide

| binding result [1] | binding result [2] | binding result [3] | binding result [4] | binding result [5] | Binder |
| --- | --- | --- | --- | --- | --- |
| no binding |  |  |  |  | AB-CD45RB-XG2-475 (antibody, human IgG2, V domains shown, recombinant human IgG2 kappa; also called sc475) VH: AVQLLESGGGLIQPGGSLRLSCAASGFTFSSYAMSWVRQAPGKGLEWVSAISGSGGSTFYADSVRGRFTISRDNSKNTLYLQMNSLRVEDTAVYYCAKEVMGPIFFDYWGQGTLVTVSS VL: EIVLTQSPGTLSLSPGERATLSCRASQSIISSALAWYQQKPGQAPRLLIYGASSRATGIPDRFSGSGSGTDFTLTISRLEPEDFAVYHCQQYGSTPLTFGGGTKVEIK |
| no binding | no binding | no binding | no binding | no binding | AB-CD45RB-XG2-525 (antibody, human IgG2, V domains shown, recombinant human IgG2 kappa; also called sc525) VH: QVQLVESGGGVVQPGRSLRVSCAASGFTFSNYGMHWVRQAPGKGLEWVAVIWYDGSKKFYADSVKGRFTISRDNSQNTLSLQMSSLRAEDTAVYYCARGGGDFDFWGQGTLVTVSS VL: KIVMTQSPATLSVSPGERATLSCRASQSLSGSYLAWYQQRPGQAPRLLIYGASTRATGIPARFSGSGSGTEFTLTISSLQSEDFAVYYCQQYNKWPPLTFGGGTKVEIK |
| no binding | no binding | no binding | no binding | no binding | AB-CD45RB-XG2-606 (antibody, human IgG2, V domains shown, recombinant human IgG2 kappa; also called sc606) VH: QVQLAESGGGVVQPGRSLRLSCAASGFTFSNYGMHWVRQAPGKGLEWVAIIWYDGSKKFYADSVKGRFTISRDNSNNTLYLHVNSLRVEDTAVYYCARGGGDIDFWGQGTLVTVSS VL: not shown |
| no binding | no binding | no binding | no binding | no binding | AB-CD45RB-XG2-026 (antibody, human IgG2, V domains shown, recombinant human IgG2 kappa; also called sc026; 1G10 (sc026)) VH: QVQLVESGGGVVQPGRSLRLSCAASGFTFSNYGMHWVRQAPGKGLEWVAVIWYDGSNKYYADSVKGRFTISRDNSKNTLYLQMNSLRAEDTAVYYCARGGGDFDYWGQGTLVTVSS VL: EIVMTQSPATLSVSPGERVTLSCRASQTISGSYLAWYQQKPGQAPRLLIYGAFTRATGIPARFSGSGSGTEFTLTISSLQSEDFAVYYCQQYNNWPPLTFGGGTRVEIK |
| no binding | no binding | no binding | no binding | no binding | AB-CD45RB-XG2-593 (antibody, human IgG2, V domains shown, recombinant human IgG2 kappa; also called sc593) VH: QVQLVESGGGVVQPGRSLRVSCAASGFTFSNYGMHWVRQAPGKGLEWVAVIWYDGSKKFYADSVKGRFTISRDNSQNTLSLQMSSLRAEDTAVYYCARGGGDFDFWGQGTLVTVSS VL: KIVMTQSPATLSVSPGERATLSCRASQSVSGNYLAWYQQRPGQAPRLLIYGASTRATGIPARFSGSGSGTEFTLTISSLQSEDFAVYYCQQYGKWPPLTFGGGTKVEIK |
| no binding | no binding |  | no binding |  | AB-CD45RB-XG2-502 (antibody, human IgG2, V domains shown, recombinant human IgG2 kappa; also called sc502) VH: QVQLVESGGGVVQPGRSLRVSCAASGFTFSNYGMHWVRQAPDKGLEWVAVIWYDGSKKFYADSVKGRFTISRDNSQNTLSLQMSSLRAEDTAVYYCARGGGDFDFWGQGTLVTVSS VL: KIVMTQSPATLSVSPGERATLSCRASQSVSGNYLAWYQRRPGQAPRLLIYGASTRATGIPARFSGSGSGTEFTLTISSLQSEDFAVYYCQQYGKWPPLTFGGGTKVEIK |
| no binding | no binding | no binding | no binding | no binding | AB-CD45RB-XG2-487 (antibody, human IgG2, V domains shown, recombinant human IgG2 kappa; also called sc487) VH: QVQLVESGGGVVQPGRSLRVSCEASGFTFSNYGMHWVRQAPGKGLEWVAVIWYDGSKKFYADSVKGRFTISRDNSQNTLSLQMSSLRAEDTAVYYCARGGGDFDFWGQGTLVTVSS VL: KIVMTQSPATLSVSPGERATLSCRASQSVSGNYLAWYQQRPGQAPRLLIYGASTRATGIPARFSGSGSGTEFTLTISSLQSEDFAVYYCQQYGKWPPLTFGGGTKVEIK |
| no binding | no binding | no binding | no binding | no binding | AB-CD45RB-XG2-713 (antibody, human IgG2, V domains shown, recombinant human IgG2 kappa; also called sc713) VH: QVQLVESGGGVVQPGRSLRLSCAASGFTFSNYGMHWVRQAPGKGLEWVAVIWYDGSKKFYADSVKGRFTISRDNFEKTLYLQMNSLRAEDTAVYYCARGGGDFDYWGQGTLVTVSS VL: EIVMTQSPATLSVSPGERATLSCRASQSLSGSYLAWYQQKPGQAPRLLIYSASTRATGIPARFSGSGSGTEFTLTISSLQSEDFAVYYCQQYNNWPPLTFGGGTKVEIK |
| no binding | no binding | no binding | no binding | no binding | AB-CD45RB-XG2-493 (antibody, human IgG2, V domains shown, recombinant human IgG2 kappa; also called sc493) VH: QVQLVESGGGVVQPGRSLRVSCAASGFTFSNYGMHWVRQAPGKGLEWVAVIWYDGSKKFYADSVKGRFTISRDNSQNTLSLQMSSLRAEDTAVYYCARGGGDFDFWGQGTLVTVSS VL: KIVMTQSPVTLSVSPGERATLSCRACQSVSGSYLAWYQQRPGQAPRLLIYGASTRATGIPARFSGSGSGTEFTLTISSLQSEDFAVYYCQQYGKWPPLTFGGGTKVEIK |
| no binding |  |  |  |  | AB-CD45RB-XG2-275 (antibody, human IgG2, V domains shown, recombinant human IgG2 kappa; also called sc275) VH: QVQLVESGGGVVQPGRSLRLSCAASGFTFSKFGMHWVRQAPDKGLEWVAVIWYDGTYKYYADSVKGRFTISRDNSKNTLYLQMNSLRAEDTAVYYCARGGGSFDYWGQGTLVTVSS VL: DIVMTQTPLSLSVTPGQPASISCKSSQSLLHSDGKTFLYWYLQKPGQPPQLLIYEVSNRFSGVPDRFSGSGSGIDFTLKISRVEAEDVGVYYCMQSIQFPITFGQGTRLEIK |
| no binding |  |  |  |  | AB-CD45RB-XG2-416 (antibody, human IgG2, V domains shown, recombinant human IgG2 kappa; also called sc416) VH: QVQLVESGGGVVQPGRSLRLSCAASGFTFSRYGMHWVRQAPGKGLEWVAVIWYDGSNKYYADSVKGRFTISRDNSKNTLYLQVNSLRAEDTAVYYCARGGGSFDYWGQGTLVTVSS VL: DIVMTQTPLSLSVTPGQPASISCKSSQSLLHSDGKTFLYWYLQKPGQPPQLLIYEVSNRFSGVPDRFGGSGSGTDFTLKISRVEAEDVGVYYCMQSIQFPITFGQGTRLEIE |
| no binding |  |  |  |  | AB-CD45RB-XG2-324 (antibody, human IgG2, V domains shown, recombinant human IgG2 kappa; also called sc324; 39E11 (sc324)) VH: QVQLVESGGGVVQPGRSLRLSCAASGFTFSKFGMHWVRQAPDKGLEWVAVIWYDGSYKYYADSVKGRFTISRDNSKNTLYLQMNSLRAEDTAAYYCARGGGSFDYWGQGTLVTVSS VL: DIVMTQTPLSLSVTPGQPASISCKSSQSLLHSDGKTFLYWYLQKPGQPPQLLIYEVSNRFSGVPDRFSGSGSGIDFTLKISRVEAEDVGVYYCMQSIQFPITFGQGTRLEIK |
| no binding |  |  |  |  | AB-CD45RB-XG2-413 (antibody, human IgG2, V domains shown, recombinant human IgG2 kappa; also called sc413) VH: QVQLVESGGGVVQPGRSLRLSCAASGFTFSSYGMHWVRQAPDKGLEWVAVIWYDGSYKYYADSVKGRFTISRDNSKNTLYLQMNSLRAEDTAVYYCARGGGSFDYWGQGTLVTVSS VL: DIVMTQTPLSLSVTPGQPASISCKSSQSLLHRDGKTFLYWYLQKPGQPPQLLIYEVSNRFSGVPDRFSGSGSGTDFTLKISRVEAEDVGVYYCMQSIQFPITFGQGTRLEIK |
| no binding |  |  |  |  | AB-CD45RB-XG2-569 (antibody, human IgG2, V domains shown, recombinant human IgG2 kappa; also called sc569) VH: QVQLQESGPGLVKPSETLSLTCTVSGGSISGYYWSWIRQPAGKGLEWIGRIHTTGKTAYNSSLKSRVIMSVDTSKNLFSLKLTSVTAADTAVYYCARDYDFLTGYFDYWGQGTLVTVSS VL: not shown |
